Measurements reported in article PMC6993239.

Key:
[1] = target: recombinant human FcγRI, histidine-tagged (human) (UniProt P12314); assay: SPR
[2] = target: histidine-tagged mouse FcγRI (mouse) (UniProt P26151); assay: SPR; Biacore T200; His-tagged muFcγRI (2.4 nM) captured on an anti-histidine antibody CM5 chip; pertuzumab or conjugates as analyte, association and dissociation 120 s each; steady-state analysis
[3] = target: recombinant human FcγRI, histidine-tagged (human) (UniProt P12314); assay: SPR; Biacore T200; His-tagged huFcγRI (0.8 nM) captured on an anti-histidine antibody CM5 chip; pertuzumab or conjugates 0.78-100 nM as analyte, 5 min association, 5 min dissociation, 30 μL/min; HBS-P+ with 50 μM EDTA; 1:1 fit (RI set to 0)

Chain of UniProt P26151 (P26151 25-297): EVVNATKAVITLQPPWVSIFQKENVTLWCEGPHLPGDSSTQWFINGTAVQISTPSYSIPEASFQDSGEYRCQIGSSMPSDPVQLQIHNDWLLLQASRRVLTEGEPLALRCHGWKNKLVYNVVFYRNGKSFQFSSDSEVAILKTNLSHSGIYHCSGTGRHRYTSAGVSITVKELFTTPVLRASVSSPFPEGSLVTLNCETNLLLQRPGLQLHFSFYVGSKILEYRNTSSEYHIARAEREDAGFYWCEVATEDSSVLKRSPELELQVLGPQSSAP
Chain of UniProt P12314 (P12314 16-292): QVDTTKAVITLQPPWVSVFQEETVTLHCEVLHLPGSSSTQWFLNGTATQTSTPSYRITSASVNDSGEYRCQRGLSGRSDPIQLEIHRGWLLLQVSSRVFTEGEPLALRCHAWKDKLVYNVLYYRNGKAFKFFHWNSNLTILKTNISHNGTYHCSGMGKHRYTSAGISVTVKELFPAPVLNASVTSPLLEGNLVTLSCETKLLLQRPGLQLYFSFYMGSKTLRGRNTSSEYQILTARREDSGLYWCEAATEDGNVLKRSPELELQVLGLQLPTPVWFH

| Substance | koff [1] [s⁻¹] | Kd [2] [nM] | Kd [3] [nM] | interaction half-time [3] [min] |
| --- | --- | --- | --- | --- |
| DFO-^nsspertuzumab | 0.00156 |  |  |  |
| DFO-^nsspertuzumab (antibody) |  | 250 | 4.1 | 7.4 |
| DFO-^sspertuzumab-EndoS | 0.00387 |  |  |  |
| DFO-^sspertuzumab-EndoS (antibody) |  | 1100 | 17.4 | 3 |
| DFO-^sspertuzumab-βGal (antibody) |  | 210 |  | 8 |
| native pertuzumab (antibody) |  | 250 |  | 7.3 |
